The values that follow come from FireProtDB (doi:10.1021/bi020450z).

First the molecules themselves.
B1: Adrenodoxin, mitochondrial, P00257 (parent)
chain: MAARLLRVASAALGDTAGRWRLLARPRAGAGGLRGSRGPGLGGGAVATRTLSVSGRAQSSSEDKITVHFINRDGETLTTKGKIGDSLLDVVVQNNLDIDGFGACEGTLACSTCHLIFEQHIFEKLEAITDEENDMLDLAYGLTDRSRLGCQICLTKAMDNMTVRVPDAVSDARESIDMGMNSSKIE

In the data set the parent is B1. The following applies: Bos taurus, reversible: YES, structure 1AYF, whole UniProt chain shown; for denaturant m value / denaturant midpoint (higher = more stable) / unfolding free energy: pH 7.5, 20 °C, GdnHCl, Fluorescence, Tris-HCl 50 mM; for Tm / change of melting temperature, mutant - wild type (higher = more stable): pH 8.5, Thermal, CD, Glycine.

For the variant F117W, the denaturant m value was determined as 2.09 kcal/mol/M; the “denaturant midpoint (higher = more stable)” value stood at 1.01 M; the unfolding free energy worked out at 2.12 kcal/mol; the Tm (as a rule, the temperature at which the thermal transition is half complete) is 37.3 °C. The “change of melting temperature, mutant - wild type (higher = more stable)” value (shortened to “change of melting temperature, mutant”) was -14.6 °C.
For F122W, in that order: 2.28 kcal/mol/M, 1.82 M, 4.17 kcal/mol, 48.7 °C and -3.2 °C.
Consider Y140W, for which the Tm amounted to 51.2 °C and the “change of melting temperature, mutant” value is -0.7 °C.
With F101W, the denaturant m value was determined as 2.19 kcal/mol/M, the “denaturant midpoint (higher = more stable)” value was 1.5 M, the unfolding free energy worked out at 3.28 kcal/mol and the Tm came to 45.4 °C. For the same variant, the “change of melting temperature, mutant” value is -6.5 °C.
Turning to F69W, the Tm turned out to be 46.6 °C and the “change of melting temperature, mutant” value was -5.3 °C.
